Experimental data: PMC6553528, “An Interaction Network of the Human SEPT9 Established by Quantitative Mass Spectrometry” (G3: Genes|Genomes|Genetics, 2019)

T1: 6his-SEPT9 (human, UniProt Q9UHD8 2-586)
T1 construct: SEPT9 isoform 1 (SEPT9_i1), human; PCR amplified from the GFP-SEPT9_i1 plasmid and cloned into the in-house plasmid pES; The forward primer reads ENLYFQG (a TEV site, surmised) followed by KKSYSGG, i.e. SEPT9 from its second codon; the reverse primer ends with PEAPEM and stop codons; also called 6his-tagged SEPT9; 6his tagged SEPT9; source: E. coli, purified (IMAC, approx. 70% purity; desalted …)
T1 sequence (looked up): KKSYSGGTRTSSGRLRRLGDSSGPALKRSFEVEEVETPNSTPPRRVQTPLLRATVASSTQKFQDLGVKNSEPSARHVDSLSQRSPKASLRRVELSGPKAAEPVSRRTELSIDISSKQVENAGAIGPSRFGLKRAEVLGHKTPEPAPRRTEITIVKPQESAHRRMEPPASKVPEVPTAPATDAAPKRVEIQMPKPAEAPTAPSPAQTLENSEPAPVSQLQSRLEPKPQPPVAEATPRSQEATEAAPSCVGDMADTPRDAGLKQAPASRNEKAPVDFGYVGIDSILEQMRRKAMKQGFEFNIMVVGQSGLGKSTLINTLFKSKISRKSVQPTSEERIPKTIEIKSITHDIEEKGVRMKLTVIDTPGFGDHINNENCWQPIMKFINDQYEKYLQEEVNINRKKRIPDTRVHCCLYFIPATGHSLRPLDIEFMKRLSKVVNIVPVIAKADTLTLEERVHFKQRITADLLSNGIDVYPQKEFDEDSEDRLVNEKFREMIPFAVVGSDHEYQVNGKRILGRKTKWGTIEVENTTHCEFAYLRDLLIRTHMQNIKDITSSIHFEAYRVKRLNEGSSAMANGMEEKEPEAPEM

B1: GST-MYO6_(835-1294) (domain or fragment, UniProt Q9UM54 835-1294, looked up)
chain: PRIDGLVKVGTLKKRLDKFNEVVSVLKDGKPEMNKQIKNLEISIDTLMAKIKSTMMTQEQIQKEYDALVKSSEELLSALQKKKQQEEEAERLRRIQEEMEKERKRREEDEKRRRKEEEERRMKLEMEAKRKQEEEERKKREDDEKRIQAEVEAQLARQKEEESQQQAVLEQERRDRELALRIAQSEAELISDEAQADLALRRSLDSYPVSKNDGTRPKMTPEQMAKEMSEFLSRGPAVLATKAAAGTKKYDLSKWKYAELRDTINTSCDIELLAACREEFHRRLKVYHAWKSKNKKRNTETEQRAPKSVTDYDFAPFLNNSPQQNPAAQIPARQREIEMNRQQRFFRIPFIRPADQYKDPQSKKKGWWYAHFDGPWIARQMELHPDKPPILLVAGKDDMEMCELNLEETGLTRKRGAEILPRQFEEIWERCGGIQYLQNAIESRQARPTYATAMLQSLLK
notes: Cloned in pGEX2T; also called C-terminal tail fragment of MYO6; source: E. coli, immobilized on Glutathione Sepharose from the crude extract; not shown: GST, N-terminal, kept
B2: GST-MYO1C_(809-1063) (domain or fragment, human, UniProt O00159 809-1063, looked up)
chain: LDHVRTSFLLNLRRQLPQNVLDTSWPTPPPALREASELLRELCIKNMVWKYCRSISPEWKQQLQQKAVASEIFKGKKDNYPQSVPRLFISTRLGTDEISPRVLQALGSEPIQYAVPVVKYDRKGYKPRSRQLLLTPNAVVIVEDAKVKQRIDYANLTGISVSSLSDSLFVLHVQRADNKQKGDVVLQSDHVIETLTKTALSANRVNSININQGSITFAGGPGRDGTIDFTPGSELLITKAKNGHLAVVAPRLNSR
notes: Unconventional myosin-Ic (MYO1C), C-terminal tail fragment, amino acids 809-1063, amplified from cDNA of 1306 fibroblast mRNA; Cloned in pGEX2T; also called C-terminal tail fragment of MYO1C; source: E. coli, immobilized on Glutathione Sepharose from the crude extract; not shown: GST, N-terminal, kept

Biological target: T1, 6his-SEPT9
Test: pull-down; GST fusion proteins immobilized on Glutathione Sepharose from the crude extract, incubated with 2 µM 6his-SEPT9 for 1 h in PBS; Western blot with anti-6his and anti-GST
Conditions: both partners purified

Row | Binder | binding result
1 | B1 | binds
2 | B2 | binds
